Measurements reported in US20220160663A1 (SEOUL NATIONAL UNIVERSITY R AND DB FOUNDATION, published 2022).

Target: T1, Glut1 (accession number: NP_006507) WT, HA-tagged (UniProt P11166 1-492)
T1 construct: Expressed in THP-1 cells from a plasmid; Detected in the pull-down by anti-HA Western blot; also called WT Glut1; Glut-HA; not shown: HA tag
T1 sequence (looked up): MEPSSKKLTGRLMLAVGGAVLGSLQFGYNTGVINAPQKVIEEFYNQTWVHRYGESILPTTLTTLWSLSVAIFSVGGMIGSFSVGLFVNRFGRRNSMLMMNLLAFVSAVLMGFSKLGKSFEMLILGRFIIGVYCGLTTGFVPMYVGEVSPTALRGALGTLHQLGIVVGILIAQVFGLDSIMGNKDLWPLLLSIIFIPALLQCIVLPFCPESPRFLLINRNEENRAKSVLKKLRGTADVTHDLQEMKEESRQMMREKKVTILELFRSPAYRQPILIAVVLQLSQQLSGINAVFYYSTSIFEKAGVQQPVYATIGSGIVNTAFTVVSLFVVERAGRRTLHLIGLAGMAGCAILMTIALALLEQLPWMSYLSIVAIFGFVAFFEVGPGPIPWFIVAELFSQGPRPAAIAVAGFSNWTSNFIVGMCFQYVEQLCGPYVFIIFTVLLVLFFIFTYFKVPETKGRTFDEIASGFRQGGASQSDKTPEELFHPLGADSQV
Experiment: Strep pull-down from THP-1 cell extract, anti-HA Western blot
Description: THP-1 cell line was transfected with expression plasmids for TM4SF5-Strep (control vector, WT, N-Glycosylation-deficient mutant; N138A/N155Q), Palmitoylation-deficient mutant (C2/6/9/75/76/80/81/85/189A), Glut1 (accession number: NP_006507) WT, Glut1 K38A, and Glut1 E329Q, and after 48 hours, cell extracts were obtained. The binding of TM4SF5 and Glut1 was confirmed by Western blotting of Glut-HA using an anti-HA antibody by pulling-down with strepavidin agarose resin (Thermo Fisher Scientific).

B1: TM4SF5-Strep N-Glycosylation-deficient mutant N138A/N155Q (other, human, UniProt O14894 1-197, looked up)
chain: MCTGKCARCVGLSLITLCLVCIVANALLLVPNGETSWTNTNHLSLQVWLMGGFIGGGLMVLCPGIAAVRAGGKGCCGAGCCGNRCRMLRSVFSSAFGVLGAIYCLSVSGAGLRNGPRCLMNGEWGYHFEDTAGAYLLARTLWDRCEAPPRVVPWQVTLFSLLVAASCLEIVLCGIQLVNATIGVFCGDCRKKQDTPH
notes: Expressed in THP-1 cells and pulled down from the cell extract with streptavidin agarose; not shown: Strep tag
- binding result: no binding
